B1: KRT18 (parent)
chain: RVRSLETENRRLESKIREHLEKKG

Variants of: B1
Assay: protein stability index of a GFP-peptide fusion (GPS, HEK-293T) (PSI 1-6); higher = more stable
Conditions: c terminus: a fixed tail appended
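Note: lentivirally expressed fusions sorted by FACS into six bins by GFP to DsRed ratio, PSI derived from sequencing read proportions per bin multiplied by bin number.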

Protein stability index, by site and new letter:
L20: P 5.58; G 4.97; V 4.94; M 5.12; H 5.35; F 4.59; S 5.44; E 5.7; T 4.99; K 4.96; N 4.78; R 5.23; W 3.95; A 5.1
N9: G 3.48; I 2; L 1.79; E 4.97; H 4.51; V 1.9; Q 4.74; A 2.73; Y 3.85; M 2.85; W 1.85; F 2.3; R 3.81
R17: D 5.49; F 4.55; C 5.24; M 4.53; I 4.37; T 5; K 4.39; G 5.38; P 4.84; Q 4.54; S 5.14; H 5.06; Y 4.92; L 4.22; A 3.79
R1: Q 4.7; I 3.38; K 3.94; G 4.36; P 4.45; M 4.09; Y 1.78; D 4.9; C 4.66; N 4.56; E 3.5; V 4.19; F 1.21; H 4.14
L5: D 4.64; M 4.77; N 5.06; C 3.41; T 4.35; V 5.01; K 3.99; F 4.5; Y 4.32; Q 4.67; W 4.29
T7: G 4.22; E 5.17; C 4.97; F 4.79; Q 4.13; R 4.1; V 3.82; M 4.05; S 4.25; P 4.9; Y 4.47; D 4.17; L 4.54; N 4.34
K15: Y 4.7; I 4.41; S 5.16; A 4.53; L 3.88; C 4.06; R 4.67; M 4.02; D 3.69; F 3.04; E 5.16; H 3.6; T 4.76; Q 4.56
E21: A 4.21; D 4.98; H 4.43; G 4.62; F 3.67; T 4.2; Q 3.74; S 4.36; L 3.19; C 4.28; V 3.93; N 4.11; W 3.32; I 3.9; M 4.15; R 3.99
I16: Q 5.09; D 5.71; L 4.32; S 5.16; E 3.79; G 5.45; P 5.28; M 5.17; V 4.37; T 4.29; N 5.56; Y 4.63; W 4.96
R11: Y 3.33; V 4.79; A 4.43; D 5.08; N 4.35; G 3.96; L 4.31; E 4.73; F 4.74; H 4.91; I 4.47; W 3.69; T 4.94
L12: K 5.49; T 5.22; Y 4.91; G 5.35; H 5.05; E 5.88; M 3.02; D 4.21; P 5.41; C 4.78; Q 5.19; V 4.69; N 5.35
V2: Y 4.54; N 4.16; I 4.21; P 4.65; D 4.83; L 3.55; E 5.32; A 4.64; M 3.82; W 3.9; K 4.77; T 5.11; H 4.07
E18: I 4.29; A 4.46; V 3.88; D 4.53; F 3.22; N 4.52; C 3.81; M 3.94; P 4.88; H 3.99; T 4.25; Q 3.75; G 4.91; S 4.55; R 3.99; K 3.95; W 4.51
S14: A 4.6; Q 4.99; Y 4.24; I 4.38; K 4.19; C 3.84; N 3.68; W 3.98; T 4.47; H 4.92; L 4.59; P 4.86; V 4.16; G 4.96
E8: Y 3.82; K 3.89; I 4.4; D 3.96; A 4.08; R 3.46; C 4.22; L 4.33; Q 3.38; H 4.36; M 4.32
H19: S 4.79; V 4.49; N 4.78; C 3.82; W 2.25; F 4; E 5.26; A 4.46; D 5.22; G 5.48; T 5.01; P 5.53; I 4.03
R3: H 3.61; K 4.45; T 4.46; Y 3.15; I 3.91; Q 4.37; L 4.51; C 3.42; F 3.46; W 3.43; D 4.22; M 3.72; V 4.44; E 4.85; P 4.42
E6: V 4.11; C 4.43; N 3.33; K 4.02; R 3.96; D 4.62; F 3.32; P 4.44; I 3.84; T 3.01; L 2.31; M 3.4; Y 2.53
E13: Q 3.95; K 4.84; P 4.33; W 3.85; H 4.21; S 3.91; F 2.16; T 4.1; A 4.22; D 2.98; I 2.37; G 4.75; M 3.26; R 3.99; C 4.3; N 4.89
R10: F 4.76; V 5.08; I 4.42; K 4.36; G 4.68; T 4.71; S 4.88; M 5.26; L 4.49; D 4.3; E 4.79; P 5.08; Y 4.94; N 4.69; H 4.74; C 4; A 4.16
G24: Y 3.92; D 4.87; L 4.03; I 3.83; H 4.48; P 4.13; F 3.56; R 3.81; Q 4.14; W 4.04; N 4.61; K 4.57; C 3.69; M 3.73
S4: H 3.84; R 4.29; K 4.26; F 4.29; A 4.24; Y 3.3; P 4.58; M 3.64; G 4.35; N 4.32; C 3.5; I 2.97; V 3.54
K22: N 4.09; I 3.85; S 4.05; A 3.65; M 3.73; T 4.45; L 4.12; Q 4.89; V 4.52; R 4.21; F 4.16; Y 4.08; E 4.86; C 4.61; P 4.82; W 3.02
K23: N 4.78; S 4.52; T 4.22; G 4.75; L 3.87; D 5.45; Q 4.32; V 4.14; H 3.96; C 3.86; I 3.2; A 4.56

— the supplement of paper PMC10567573
